# Results published in article PMC4075756 (Nature, 2011).
# Target: the molecule itself
# Assay: SEC + other: sucrose gradient centrifugation
protein,measurement,value
rat dynamin 1 lacking the proline-rich domain (Dyn1 ΔPRD) (domain or fragment) MGNRGMEDLIPLVNRLQDAFSAIGQNADLDLPQIAVVGGQSAGKSSVLENFVGRDFLPRGSGIVTRRPLVLQLVNSTTEYAEFLHCKGKKFTDFEEVRLEIEAETDRVTGTNKGISPVPINLRVYSPHVLNLTLVDLPGMTKVPVGDQPPDIEFQIRDMLMQFVTKENCLILAVSPANSDLANSDALKIAKEVDPQGQRTIGVITKLDLMDEGTDARDVLENKLLPLRRGYIGVVNRSQKDIDGKKDITAALAAERKFFLSHPSYRHLADRMGTPYLQKVLNQQLTNHIRDTLPGLRNKLQSQLLSIEKEVDEYKNFRPDDPARKTKALLQMVQQFAVDFEKRIEGSGDQIDTYELSGGARINRIFHERFPFELVKMEFDEKELRREISYAIKNIHGIRTGLFTPDLAFEATVKKQVQKLKEPSIKCVDMVVSELTSTIRKCSEKLQQYPRLREEMERIVTTHIREREGRTKEQVMLLIDIELAYMNTNHEDFIGFANAQQRSNQMNKKKTSGNQDEILVIRKGWLTINNIGIMKGGSKEYWFVLTAENLSWYKDDEEKEKKYMLSVDNLKLRDVEKGFMSSKHIFALFNTEQRNVYKDYRQLELACETQEEVDSWKASFLRAGVYPERVGDKEKASETEENGSDSFMHSMDPQLERQVETIRNLVDSYMAIVNKTVRDLMPKTIMHLMINNTKEFIFSELLANLYSCGDQNTLMEESAEQAQRRDEMLRMYHALKEALSIIGDINTTTVST,stoichiometry N,2
